B1: Hairpin Ribozyme (parent)
chain: GUCCUCUUUCACGUGCGCGUGAAAGAGAGAAGUGAACCAGAGAAACACACGUUGUGGUAUAUUACCUGGUA

Variants of: B1
Assay: self-cleavage, relative activity (ratio to wild type); higher = more cleavage; co-transcriptional

Variant	self-cleavage
GUCCUCUUUCAUGUGCGCGUGAAAGAGAGAAGUGAACCAGAGAAACACAAGUUGUGGUAUAUUACCUGGUA [C12U C50A]	0.314
GUCCUCUUUCAUGUGCGCGUGAAAGAGAGAAGUGAACCAGAGAAACACAUGUUGUGGUAUAUUACCUGGUA [C12U C50U]	0.431
GUCCUCUUUCAGGUGCGCGUGAAAGAGAGAAGUGAACCAGAGAAACACACGUUGUGGCAUAUUACCUGGUA [C12G U58C]	0.762
GUCCUCUUUCAGGUGCGCGUGAAAGAGAGAAGUGAACCAGAGAAACACACGUUGUGGGAUAUUACCUGGUA [C12G U58G]	0.502
GUCCUCUUUCAUGUGCGCGUGAGAGAGAGAAGUGAACCAGAGAAACACACGUUGUGGUAUAUUACCUGGUA [C12U A23G]	0.965
GUCCUCUUUCAUGUGCGCGUGAUAGAGAGAAGUGAACCAGAGAAACACACGUUGUGGUAUAUUACCUGGUA [C12U A23U]	0.807
GUCCUCUUUCAUGUGCGCGUGAAAGAGAGAAGUGAACCAGAGAAACACACGUUGUGGUAUAUUAGCUGGUA [C12U C65G]	0.2
GUCCUCUUUCAUGUGCGCGUGAAAGAGAGAAGUGAACCAGAGAAACACACGUUGUGGUAUAUUAUCUGGUA [C12U C65U]	0.348
GUCCUCUUUCAUGUGCGCGUGAAAGAGAGAAGUGAACCAGAGAAACACACGUUGUGGUAUAUUAACUGGUA [C12U C65A]	0.88
GUCCUCUUUCAUGUGCGCGUGAAAGAGAGAAGUGAACCAGAGAAACACACGUUAUGGUAUAUUACCUGGUA [C12U G54A]	0.587
GUCCUCUUUCAUGUGCGCGUGAAAGAGAGAAUUGAACCAGAGAAACACACGUUGUGGUAUAUUACCUGGUA [C12U G32U]	0.082
GUCCUCUUUCAGGUGCGCGUGAAAGAGAGAAGUGAACCAGAGAAACACACGUUGUGGUAUAUUACCUGGCA [C12G U70C]	0.699
GUCCUCUUUCAGGUGCGCGUGAAAGACAGAAGUGAACCAGAGAAACACACGUUGUGGUAUAUUACCUGGUA [C12G G27C]	0.226
GUCCUCUUUCAUGUGCGCGUGAAAGAGAGAAGUGAACCAGAGAAACACACGUUGUGGUAUCUUACCUGGUA [C12U A61C]	0.24
GUCCUCUUUCAGGUGCGCGUGAAAGAGAGAAGUGAACCAGAGAAACACACGUUGUGGUAUAUUACCUGCUA [C12G G69C]	0.355
GUCCUCUUUCAGGCGCGCGUGAAAGAGAGAAGUGAACCAGAGAAACACACGUUGUGGUAUAUUACCUGGUA [C12G U14C]	0.61
GUCCUCUUUCAUGUGCGCGUGAAAGAGAGAAGUGAACCAGAUAAACACACGUUGUGGUAUAUUACCUGGUA [C12U G42U]	0.355
GUCCUCUUUCAUGUGCGCGUGAAAGAGAGAAGUGAACCAGAAAAACACACGUUGUGGUAUAUUACCUGGUA [C12U G42A]	0.149
GUCCUCUUUCAUGUGCUCGUGAAAGAGAGAAGUGAACCAGAGAAACACACGUUGUGGUAUAUUACCUGGUA [C12U G17U]	0.69
GUCCUCUUUCAUGUGCGCGUGAAAGAGAGAAGUGAACCAGAGAAACACACGUUGUGGUAUAUUACCUAGUA [C12U G68A]	0.259
GUCCUCUUUCAGGUGCGCGUGAAAGAGAGAAGUGAACCAGAGAAACACACGUUGUCGUAUAUUACCUGGUA [C12G G56C]	0.154
GUCCUCUUUCAGGUGCGCGUGAAAGAGAGAAGUGAACCAGAGAAACACACGUUGUGGUAAAUUACCUGGUA [C12G U60A]	0.748
GUCCUCUUUCAGCUGCGCGUGAAAGAGAGAAGUGAACCAGAGAAACACACGUUGUGGUAUAUUACCUGGUA [C12G G13C]	0.944
GUCCUCUUUCAGUUGCGCGUGAAAGAGAGAAGUGAACCAGAGAAACACACGUUGUGGUAUAUUACCUGGUA [C12G G13U]	0.561
GUCCUCUUUCAUGUGCGCGUGAAGGAGAGAAGUGAACCAGAGAAACACACGUUGUGGUAUAUUACCUGGUA [C12U A24G]	0.892
GUCCUCUUUCAUGUGCGCGUGAACGAGAGAAGUGAACCAGAGAAACACACGUUGUGGUAUAUUACCUGGUA [C12U A24C]	0.721

Variant	self-cleavage
GUCCUCUUUCAUGUGCGCGUGAAAGAGAGAAGUGAACAAGAGAAACACACGUUGUGGUAUAUUACCUGGUA [C12U C38A]	0.143
GUCCUCUUUCAUGUGCGCGUGAAAGAGAGAAGUGAACCAGUGAAACACACGUUGUGGUAUAUUACCUGGUA [C12U A41U]	0.928
GUCCUCUUUCAUGUGCGGGUGAAAGAGAGAAGUGAACCAGAGAAACACACGUUGUGGUAUAUUACCUGGUA [C12U C18G]	0.832
GUCCUCUUUCAUGUGCGUGUGAAAGAGAGAAGUGAACCAGAGAAACACACGUUGUGGUAUAUUACCUGGUA [C12U C18U]	0.978
GUCCUCUUUCAGGUGCGCGUGAAAGAGAGAAGUGAACCAGAGAAACACACGUUGCGGUAUAUUACCUGGUA [C12G U55C]	0.216
GUCCUCUUUCAGGUGCGCGUGAAAGAGAGAAGUGAACCAGAGAAACACACGUUGGGGUAUAUUACCUGGUA [C12G U55G]	0.322
GUCCUCUUUCAUGUGCGCGUGAAAGAGAGAAGUGAACCAGAGAAACACACGUUGUGGUUUAUUACCUGGUA [C12U A59U]	0.182
GUCCUCUUUCAUGUGCGCGUGAAAGAGAGAAGUGAACCAGAGAAACACACGUUGUGGUGUAUUACCUGGUA [C12U A59G]	0.116
GUCCUCUUUCAGGUGCGCGUGAAAGAGAGAAGUGAACCAGAGAAACACACGUUUUGGUAUAUUACCUGGUA [C12G G54U]	0.537
GUCCUCUUUCAGGUGCGCGUGAAAGAGAGAAGUGAACCAGAGAAACACACGUUCUGGUAUAUUACCUGGUA [C12G G54C]	0.246
GUCCUCUUUCAGGUGCGCGUGAAAGAGAAAAGUGAACCAGAGAAACACACGUUGUGGUAUAUUACCUGGUA [C12G G29A]	0.138
GUCCUCUUUCAUGUGCGCGUGAAAGAGAGAAGUGAAACAGAGAAACACACGUUGUGGUAUAUUACCUGGUA [C12U C37A]	0.282
GUCCUCUUUCAGGUGCGCGUGAAAGAGAGAAGUGAACCAGAGAAACACACGUUGUGGUAUAGUACCUGGUA [C12G U62G]	0.21
GUCCUCUUUCAUGUGCGCGUGAAAGAGGGAAGUGAACCAGAGAAACACACGUUGUGGUAUAUUACCUGGUA [C12U A28G]	1.19
GUCCUCUUUCAUGUGCGCGUGAAAGAGCGAAGUGAACCAGAGAAACACACGUUGUGGUAUAUUACCUGGUA [C12U A28C]	0.437
GUCCUCUUUCAUGUGCGCGUGAAAGAGUGAAGUGAACCAGAGAAACACACGUUGUGGUAUAUUACCUGGUA [C12U A28U]	0.583
GUCCUCUUUCAUGUGCGCGUGAAAGAGAGAUGUGAACCAGAGAAACACACGUUGUGGUAUAUUACCUGGUA [C12U A31U]	0.112
GUCCUCUUUCAUGUGCGCGUGAAAGAGAGAAGUGUACCAGAGAAACACACGUUGUGGUAUAUUACCUGGUA [C12U A35U]	0.743
GUCCUCUUUCAGGUGCGCGUGAAAGAGAGAAGUGAACCAGAGAAACACACGUUGUGGUAUAUUACCAGGUA [C12G U67A]	0.202
GUCCUCUUUCAGGUGCGCGUGAAAGAGAGAAGUGAACCAGAGAAACACACGUUGUGGUAUAUUACCGGGUA [C12G U67G]	0.215
GUCCUCUUUCAGGUGCGCGUGAAAGAGAGAAAUGAACCAGAGAAACACACGUUGUGGUAUAUUACCUGGUA [C12G G32A]	0.143
GUCCUCUUUCAGGUGCGCGUGAAAGAGAGAAGUGAACCAGAGAAACACACGAUGUGGUAUAUUACCUGGUA [C12G U52A]	0.922
GUCCUCUUUCAUGUCCGCGUGAAAGAGAGAAGUGAACCAGAGAAACACACGUUGUGGUAUAUUACCUGGUA [C12U G15C]	0.897
GUCCUCUUUCAUGUGCGCGUGAAAGAGAGAAGUGAACCAGAGAAACACACGUUGUAGUAUAUUACCUGGUA [C12U G56A]	0.177
GUCCUCUUUCAGGUGCGCGUGAAAGAGAGAAGUGAACCAGAGAAACACACGUUGUGAUAUAUUACCUGGUA [C12G G57A]	0.152
GUCCUCUUUCAGGUGCGCGUGAAAGAGAGAAGUGAACCAGAAAAACACACGUUGUGGUAUAUUACCUGGUA [C12G G42A]	0.276

Variant	self-cleavage
GUCCUCUUUCAGGUGCGCGUAAAAGAGAGAAGUGAACCAGAGAAACACACGUUGUGGUAUAUUACCUGGUA [C12G G21A]	0.683
GUCCUCUUUCAGGUGCCCGUGAAAGAGAGAAGUGAACCAGAGAAACACACGUUGUGGUAUAUUACCUGGUA [C12G G17C]	0.842
GUCCUCUUUCAGGUGCGCGUGAAAGAGAGAAGUGAACCAGAGAAACACACGUUGUGGUAUAUCACCUGGUA [C12G U63C]	0.296
GUCCUCUUUCAGGUGCGCGGGAAAGAGAGAAGUGAACCAGAGAAACACACGUUGUGGUAUAUUACCUGGUA [C12G U20G]	0.798
GUCCUCUUUCAUGUGCGCGUGAAAGAGAGAAGUGAACCGGAGAAACACACGUUGUGGUAUAUUACCUGGUA [C12U A39G]	0.297
GUCCUCUUUCAUGUGCGCGUAAAAGAGAGAAGUGAACCAGAGAAACACACGUUGUGGUAUAUUACCUGGUA [C12U G21A]	0.748
GUCCUCUUUCAUGUGCGCGUGAAAGAGAGGAGUGAACCAGAGAAACACACGUUGUGGUAUAUUACCUGGUA [C12U A30G]	0.173
GUCCUCUUUCAUGUGCGCGUGAAAGAGAGAAGUGACCCAGAGAAACACACGUUGUGGUAUAUUACCUGGUA [C12U A36C]	0.674
GUCCUCUUUCAUGUGCGCGUGAAAGAGAGAAGUGAACCAGAGACACACACGUUGUGGUAUAUUACCUGGUA [C12U A44C]	0.184
GUCCUCUUUCAUGUGCGCGUGAAAGAGAGAAGUGAACCAGAGAAACACACGUUGUGGUAUAUUACCUGGUG [C12U A71G]	0.797
GUCCUCUUUCAUGUGCGCGUGAAAGAUAGAAGUGAACCAGAGAAACACACGUUGUGGUAUAUUACCUGGUA [C12U G27U]	0.199
GUCCUCUUUCAUGUGCGCGUGAAAGAGAGAAGUGAACCAGAGAAACACACGUUGUGGUAUAUUGCCUGGUA [C12U A64G]	0.564
GUCCUCUUUCAUGUGCGCGUGAAAGAGAGAAGUGAACCAGAGAAACACACGUUGUGGUAUAUUUCCUGGUA [C12U A64U]	0.241
GUCCUCUUUCAUGUGCGCGUGAAAGAGAGAAGUGAACCAGAGAAACAAACGUUGUGGUAUAUUACCUGGUA [C12U C48A]	0.107
GUCCUCUUUCAGGUGCGCGUGAAAGAGAGAAGUGAACCAGAGAAACACACGUUGUGGUAUAUUACAUGGUA [C12G C66A]	0.171
GUCCUCUUUCAGGUGCGCGUGAAAAAGAGAAGUGAACCAGAGAAACACACGUUGUGGUAUAUUACCUGGUA [C12G G25A]	0.524
GUCCUCUUUCAUGUGCGCAUGAAAGAGAGAAGUGAACCAGAGAAACACACGUUGUGGUAUAUUACCUGGUA [C12U G19A]	1.02
GUCCUCUUUCAGGUGCGCGUGAAAGAGAGAAGUGAACCAUAGAAACACACGUUGUGGUAUAUUACCUGGUA [C12G G40U]	0.113
GUCCUCUUUCAGGUGCGCGUGAAAGAGAGAAGUGAACCACAGAAACACACGUUGUGGUAUAUUACCUGGUA [C12G G40C]	0.117
GUCCUCUUUCAGGUGCGCGUGAAAGAGAGAAGAGAACCAGAGAAACACACGUUGUGGUAUAUUACCUGGUA [C12G U33A]	0.0646
GUCCUCUUUCAUGUGCGCGUGAAAGUGAGAAGUGAACCAGAGAAACACACGUUGUGGUAUAUUACCUGGUA [C12U A26U]	0.591
GUCCUCUUUCAUGUGCGCGUGAAAGCGAGAAGUGAACCAGAGAAACACACGUUGUGGUAUAUUACCUGGUA [C12U A26C]	0.481
GUCCUCUUUCAUGUGCGCGUGAAAGGGAGAAGUGAACCAGAGAAACACACGUUGUGGUAUAUUACCUGGUA [C12U A26G]	0.796
GUCCUCUUUCAUGUGCGCGUGAAAAAGAGAAGUGAACCAGAGAAACACACGUUGUGGUAUAUUACCUGGUA [C12U G25A]	0.482
